From patent US20250076311A1 (Chugai, published 2025)
Values belong to the binder of their own block, whether it stands above or below them.

Key:
[1] = target: T1, cynomolgus monkey FcγRIIa3 extracellular domain with C-terminal His-tag (cynomolgus monkey); experiment: SPR (BIACORE), antibody captured, FcgR analyte
T1 construct: also called cyno FcgRIIa3; cynoFcγRIIa3; not shown: His-tag added to the C-terminus
T1 chain: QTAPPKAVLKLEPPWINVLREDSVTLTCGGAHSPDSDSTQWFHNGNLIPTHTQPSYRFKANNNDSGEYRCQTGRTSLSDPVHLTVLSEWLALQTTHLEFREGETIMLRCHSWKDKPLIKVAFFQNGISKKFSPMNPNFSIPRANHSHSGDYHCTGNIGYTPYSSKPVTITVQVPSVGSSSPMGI

[2] = target: T2, cynomolgus monkey FcγRIIa2 extracellular domain with C-terminal His-tag (cynomolgus monkey); experiment: SPR (BIACORE), antibody captured, FcgR analyte
T2 construct: also called cyno FcgRIIa2; cynoFcγRIIa2; not shown: His-tag added to the C-terminus
T2 chain: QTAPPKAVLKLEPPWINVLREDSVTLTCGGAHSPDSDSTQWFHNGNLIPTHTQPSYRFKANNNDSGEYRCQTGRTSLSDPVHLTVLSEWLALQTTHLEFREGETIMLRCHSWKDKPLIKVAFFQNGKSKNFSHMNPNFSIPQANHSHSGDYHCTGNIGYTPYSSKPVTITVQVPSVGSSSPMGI

[3] = target: T3, human FcγRIIaR extracellular domain with C-terminal His-tag (human, UniProt P12318 34-217); experiment: SPR (BIACORE), antibody captured, FcgR analyte
T3 construct: also called human FcgRIIaR; FcγRIIa type R; not shown: His-tag added to the C-terminus
T3 chain: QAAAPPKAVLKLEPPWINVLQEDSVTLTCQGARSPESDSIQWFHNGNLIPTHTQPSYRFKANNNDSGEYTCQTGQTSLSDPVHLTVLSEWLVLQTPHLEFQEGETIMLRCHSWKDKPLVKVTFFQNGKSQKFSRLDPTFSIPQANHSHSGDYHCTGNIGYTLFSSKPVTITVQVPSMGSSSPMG

[4] = target: T4, human FcγRIIaH extracellular domain with C-terminal His-tag (human, UniProt P12318 34-217); experiment: SPR (BIACORE), antibody captured, FcgR analyte
T4 construct: also called human FcgRIIaH; FcγRIIa type H; not shown: His-tag added to the C-terminus
T4 sequence: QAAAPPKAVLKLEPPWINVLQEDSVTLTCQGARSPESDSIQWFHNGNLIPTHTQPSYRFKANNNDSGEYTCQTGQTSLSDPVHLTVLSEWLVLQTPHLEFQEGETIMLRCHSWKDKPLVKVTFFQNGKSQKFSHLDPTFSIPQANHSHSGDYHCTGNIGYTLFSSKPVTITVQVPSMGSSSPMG

[5] = target: T5, human FcγRIIb extracellular domain with C-terminal His-tag (human, UniProt P31994 43-217); experiment: SPR (BIACORE), antibody captured, FcgR analyte
T5 construct: also called human FcgRIIb; not shown: His-tag added to the C-terminus
T5 sequence: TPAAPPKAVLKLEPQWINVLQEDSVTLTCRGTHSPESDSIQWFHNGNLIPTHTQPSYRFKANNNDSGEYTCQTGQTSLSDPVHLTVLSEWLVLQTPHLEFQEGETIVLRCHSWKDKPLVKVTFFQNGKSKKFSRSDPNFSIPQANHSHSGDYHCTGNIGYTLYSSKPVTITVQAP

[6] = target: T6, cynomolgus monkey FcγRIIb extracellular domain with C-terminal His-tag (cynomolgus monkey); experiment: SPR (BIACORE), antibody captured, FcgR analyte
T6 construct: also called cyno FcgRIIb; cynoFcγRIIb; not shown: His-tag added to the C-terminus
T6 chain: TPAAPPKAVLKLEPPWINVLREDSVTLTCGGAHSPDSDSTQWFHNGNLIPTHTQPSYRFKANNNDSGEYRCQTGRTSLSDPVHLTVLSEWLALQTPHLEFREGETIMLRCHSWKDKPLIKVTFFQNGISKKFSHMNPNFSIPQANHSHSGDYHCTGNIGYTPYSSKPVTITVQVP

[7] = target: T7, cynomolgus monkey FcγRIIa1 extracellular domain with C-terminal His-tag (cynomolgus monkey); experiment: SPR (BIACORE), antibody captured, FcgR analyte
T7 construct: also called cyno FcgRIIa1; cynoFcγRIIa1; not shown: His-tag added to the C-terminus
T7 chain: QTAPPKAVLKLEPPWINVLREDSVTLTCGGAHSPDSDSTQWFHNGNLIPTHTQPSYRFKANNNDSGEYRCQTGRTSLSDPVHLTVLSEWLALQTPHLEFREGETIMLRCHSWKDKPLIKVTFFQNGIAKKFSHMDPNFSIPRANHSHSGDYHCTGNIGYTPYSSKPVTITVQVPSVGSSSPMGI

[8] = target: T8, human FcγRIIIaV extracellular domain with C-terminal His-tag (human, UniProt P08637 17-208); experiment: SPR (BIACORE), antibody captured, FcgR analyte
T8 construct: also called human FcgRIIIaV; not shown: His-tag added to the C-terminus
T8 sequence (P08637 17-208 F176V): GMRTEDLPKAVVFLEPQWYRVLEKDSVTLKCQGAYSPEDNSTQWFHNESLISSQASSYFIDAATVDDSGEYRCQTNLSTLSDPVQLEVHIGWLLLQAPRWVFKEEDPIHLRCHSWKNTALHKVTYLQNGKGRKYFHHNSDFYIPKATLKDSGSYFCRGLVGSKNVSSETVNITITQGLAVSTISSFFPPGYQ

[9] = target: T9, cynomolgus monkey FcγRIIIaS extracellular domain with C-terminal His-tag (cynomolgus monkey, UniProt A3RFZ7 21-206 (rhesus entry)); experiment: SPR (BIACORE), antibody captured, FcgR analyte
T9 construct: also called cyno FcgRIIIaS; cynoFcγRIIIaS; not shown: His-tag added to the C-terminus
T9 sequence (A3RFZ7 21-206): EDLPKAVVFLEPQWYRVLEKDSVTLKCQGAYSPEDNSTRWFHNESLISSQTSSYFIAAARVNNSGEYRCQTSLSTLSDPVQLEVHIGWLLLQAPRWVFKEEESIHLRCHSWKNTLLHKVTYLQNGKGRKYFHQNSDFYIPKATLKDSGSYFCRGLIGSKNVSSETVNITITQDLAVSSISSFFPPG

[10] = target: T1, cynomolgus monkey FcγRIIa3 …; experiment: SPR (BIACORE); KD of SG1 / KD of variant
[11] = target: T2, cynomolgus monkey FcγRIIa2 …; experiment: SPR (BIACORE); KD of SG1 / KD of variant
[12] = target: T3, human FcγRIIaR extracellular domain …; experiment: SPR (BIACORE); KD of SG1 / KD of variant
[13] = target: T4, human FcγRIIaH extracellular domain …; experiment: SPR (BIACORE); KD of SG1 / KD of variant
[14] = target: T5, human FcγRIIb extracellular domain with …; experiment: SPR (BIACORE); KD of SG1 / KD of variant
[15] = target: T6, cynomolgus monkey FcγRIIb extracellular …; experiment: SPR (BIACORE); KD of SG1 / KD of variant
[16] = target: T7, cynomolgus monkey FcγRIIa1 …; experiment: SPR (BIACORE); KD of SG1 / KD of variant
[17] = target: T8, human FcγRIIIaV extracellular domain …; experiment: SPR (BIACORE); KD of SG1 / KD of variant
[18] = target: T9, cynomolgus monkey FcγRIIIaS …; experiment: SPR (BIACORE); KD of SG1 / KD of variant
[19] = target: T10, human FcγRIIaR extracellular domain, His-tagged (human, UniProt P12318 34-217); experiment: SPR (BIACORE); KD of SG1 divided by KD of the variant
T10 construct: also called human FcgRIIaR; FcγRIIa (type R); not shown: His-tag added to the C-terminus
T10 chain: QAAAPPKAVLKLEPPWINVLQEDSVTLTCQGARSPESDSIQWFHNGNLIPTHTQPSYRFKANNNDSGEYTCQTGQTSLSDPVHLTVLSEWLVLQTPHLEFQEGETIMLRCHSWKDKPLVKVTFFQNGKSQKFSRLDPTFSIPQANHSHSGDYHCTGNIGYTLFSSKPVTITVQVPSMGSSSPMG
Description: (§1) The kinetic analysis of interactions between these antibodies and FcγR was carried out using BIACORE® T200 or BIACORE® 4000 (GE Healthcare). HBS-EP+ (GE Healthcare) was used as the running buffer, and the measurement temperature was set to 25° C. […] After the measurement, the antibody captured on the chip was washed off by allowing reaction with 10 mM glycine-HCl, pH1.5 and 25 mM NaOH so that the chip was regenerated and used repeatedly. The sensorgrams obtained as measurement results were analyzed by the 1:1 Langmuir binding model using the BIACORE® Evaluation Software to calculate the binding rate constant ka (L/mol/s) and dissociation rate constant kd (1/s), and the dissociation constant KD (mol/L) was calculated from these values. […] Regarding such interactions, KD values were calculated using the following 1:1 binding model described in BIACORE® T100 Software Handbook BR1006-48 Edition AE.

[20] = target: T11, cynomolgus monkey FcγRIIIaS extracellular domain, His-tagged (cynomolgus monkey, UniProt A3RFZ7 21-206 (rhesus entry)); experiment: as above
T11 construct: also called cyno FcgRIIIaS; cynoFcγRIIIaS; not shown: His-tag added to the C-terminus
T11 sequence (A3RFZ7 21-206): as the sequence (A3RFZ7 21-206) above
Description: as §1

[21] = target: T12, cynomolgus monkey FcγRIIa3 extracellular domain, His-tagged (cynomolgus monkey); experiment: as above
T12 construct: also called cyno FcgRIIa3; cynoFcγRIIa3; not shown: His-tag added to the C-terminus
T12 chain: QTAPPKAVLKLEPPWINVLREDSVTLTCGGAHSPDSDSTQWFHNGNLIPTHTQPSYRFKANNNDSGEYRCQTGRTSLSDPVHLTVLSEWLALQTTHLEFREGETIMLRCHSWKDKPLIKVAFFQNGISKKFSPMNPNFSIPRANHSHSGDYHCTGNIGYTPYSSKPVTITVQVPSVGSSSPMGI
Description: as §1

[22] = target: T13, cynomolgus monkey FcγRIIa2 extracellular domain, His-tagged (cynomolgus monkey); experiment: as above
T13 construct: also called cyno FcgRIIa2; cynoFcγRIIa2; not shown: His-tag added to the C-terminus
T13 chain: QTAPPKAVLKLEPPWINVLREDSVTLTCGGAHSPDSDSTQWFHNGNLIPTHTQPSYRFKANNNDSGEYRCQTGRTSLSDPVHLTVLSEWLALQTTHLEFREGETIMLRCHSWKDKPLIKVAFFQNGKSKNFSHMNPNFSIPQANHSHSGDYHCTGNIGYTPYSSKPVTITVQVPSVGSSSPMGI
Description: as §1

Kd [1]: 4.8 µM | Kd [2]: 1.8 µM | Kd [3]: 2.1 µM | Kd [4]: 2.2 µM | Kd [5]: 0.88 µM | Kd [6]: 0.85 µM | Kd [7]: 0.17 µM | Kd [8]: 8.8 µM | Kd [9]: 3.1 µM | KD fold (SG1 = 1) [10]: 3.5 fold | KD fold (SG1 = 1) [11]: 2.8 fold | KD fold (SG1 = 1) [12]: 0.5 fold | KD fold (SG1 = 1) [13]: 0.3 fold | KD fold (SG1 = 1) [14]: 5.2 fold | KD fold (SG1 = 1) [15]: 2.1 fold | KD fold (SG1 = 1) [16]: 18.8 fold | KD fold (SG1 = 1) [17]: 0.09 fold | KD fold (SG1 = 1) [18]: 0.12 fold
B1: M103205H795-MY146/M103202L889-SK1 (antibody, human IgG1, kappa, name in EU numbering)
heavy: QVTLKESGPVLVKPTETLTLTCTVSGIDLSHDDISWVRQAPGKGLEWVGIISYAGSTYYASWAKGRLTISKDTSKNQVVLTMTNMDPVDTATYYCARGVPAYSHGGDLWGQGTLVTVSSASTKGPSVFPLAPSSKSTSGGTAALGCLVKDYFPEPVTVSWNSGALTSGVHTFPAVLQSSGLYSLSSVVTVPSSSLGTQTYICNVNHKPSNTKVDKKVEPKSCDKTHTCPPCPAPELLNGPSVFLFPPKPKDTLMISRTPEVTCVVVDVSEEDPEVKFNWYVDGVEVHNAKTKPREEQYNLTYRVVSVLTVLHQDWLNGKEYKCKVSNKALPAPIEKTISKAKGQPREPQVYTLPPSREEMTKNQVSLTCLVKGFYPSDIAVEWESNGQPENNYKTTPMVLDSDGSFFLYSKLTVDKSRWQQGNVFSCSVMHEALHNHYTQKSLSLSP
light: DIVMTQSPATLSLSPGERATLSCTSSQSVYHANWLSWFQQKPGQPPKLLIYWASTLAYGVPSRFSGSGSGTDFTLTISSLQPEDAATYYCAGGYGGGRYAFGQGTKVEIKRTVAAPSVFIFPPSDEQLKSGTASVVCLLNNFYPREAKVQWKVDNALQSGNSQESVTEQDSKDSTYSLSSTLTLSKADYEKHKVYACEVTHQGLSSPVTKSFNRGEC
notes: Fc variant of MS1032LO06-SG1; positions in EU numbering

KD fold (SG1 = 1) [19]: 0.5 fold | KD fold (SG1 = 1) [20]: 0.05 fold | KD fold (SG1 = 1) [21]: 4 fold | KD fold (SG1 = 1) [22]: 3.8 fold
B2: M103205H795-MY201/M103202L889-SK1 (antibody, human IgG1, kappa)
heavy: QVTLKESGPVLVKPTETLTLTCTVSGIDLSHDDISWVRQAPGKGLEWVGIISYAGSTYYASWAKGRLTISKDTSKNQVVLTMTNMDPVDTATYYCARGVPAYSHGGDLWGQGTLVTVSSASTKGPSVFPLAPSSKSTSGGTAALGCLVKDYFPEPVTVSWNSGALTSGVHTFPAVLQSSGLYSLSSVVTVPSSSLGTQTYICNVNHKPSNTKVDKKVEPKSCDKTHTCPPCPAPELLNGPSVFLFPPKPKDTLMISRTPEVTCVVVDVSDEDPEVKFNWYVDGVEVHNAKTKPREEQYNSTYRVVSVLTVLHQDWLNGKEYKCKVSNKALPKPIEKTISKAKGQPREPQVYTLPPSREEMTKNQVSLTCLVKGFYPSDIAVEWESNGQPENNYKTTPPVLDSDGSFFLYSKLTVDKSRWQQGNVFSCSVMHEALHNHYTQKSLSLSP
light: DIVMTQSPATLSLSPGERATLSCTSSQSVYHANWLSWFQQKPGQPPKLLIYWASTLAYGVPSRFSGSGSGTDFTLTISSLQPEDAATYYCAGGYGGGRYAFGQGTKVEIKRTVAAPSVFIFPPSDEQLKSGTASVVCLLNNFYPREAKVQWKVDNALQSGNSQESVTEQDSKDSTYSLSSTLTLSKADYEKHKVYACEVTHQGLSSPVTKSFNRGEC
notes: Fc variant of SG1 with G236N/H268D/A330K; also called MS1032LO06-MY201
